The source of these data is patent publication US20040005324A1.

Assay in all cases: cell-based or functional assay
Assay [1] addresses RSV F glycoprotein of MARM v1269 (strain A2 escape mutant, substitution at aa 389) (respiratory syncytial virus strain A2), P03420.
Assay [2] has as its target RSV F glycoprotein of MARM v1302A/1 (strain A2 escape mutant, substitutions at aa 241/421) (respiratory syncytial virus strain A2), P03420.
Assay [3] deals with RSV F glycoprotein of MARM v1302A/6 (strain A2 escape mutant, substitutions at aa 241/421) (respiratory syncytial virus strain A2), P03420.
The target of assay [4] is RSV F glycoprotein of MARM v1308F (strain A2 escape mutant, substitutions at aa 241/421) (respiratory syncytial virus strain A2), P03420.

B1: human monoclonal Fab RSVF2-5 (Fab, V domains shown)
VH: LEESGGDLVQPGRSLRLSCSTSGFSFGDYPVNWFRQAPGKGLEWLGIVRSRLYGGTLQYAASVEGRFTISRDDSKSIAYLHMNSLKSEDTAVYYCGVPVANIDYWGQGTLVTVSSASTKGPSS
VL: LTQPHSVSESLGKTVTISCTRAGGRIASNYVQWYQQRPGSSPTTVIYEDNQRPFGVPDRFSGSIDTSSNSASLTISGLKTEDEADYYCQSYDSENPWVFGGGTKLTVLG
In the case of B1, the Dose for 60% plaque reduction in assay [1] is under 0.3 µg/mL; in assay [2] it was 1.4 µg/mL; in assay [3], under 0.3 µg/mL; in assay [4], 1 µg/mL.
